US7053041B1, “Methods and compositions useful for inhibition of αvβ5mediated angiogenesis” (The Scripps Research Institute, priority 1996, dated 2006)
[ ]: non-standard residue; d: D form.

B1: LM609: mouse monoclonal antibody, anti-αvβ3 (antibody, V domains shown)
VH: EVQLEESGGGLVKPGGSLKLSCAASGFAFSSYDMSWVRQIPEKRLEWVAKVSSGGGSTYYLDTVQGRFTISRDNAKNTLYLQMSSLNSEDTAMYYCARHNYGSFAYWGQGTLVTVSA
VL: ELVMTQTPATLSVTPGDSVSLSCRASQSISNHLHWYQQKSHESPRLLIKYASQSISGIPSRFSGSGSGTDFTLSINSVETEDFGMYFCQQSNSWPHTFGGGTKLEIKRA

Legend:
integrin α5β1 = integrin α5β1 (Homo sapiens, UniProt P05556+P08648); conditions: cited from earlier work
Sequence of integrin α5β1 (P08648 42-894 limits assumed): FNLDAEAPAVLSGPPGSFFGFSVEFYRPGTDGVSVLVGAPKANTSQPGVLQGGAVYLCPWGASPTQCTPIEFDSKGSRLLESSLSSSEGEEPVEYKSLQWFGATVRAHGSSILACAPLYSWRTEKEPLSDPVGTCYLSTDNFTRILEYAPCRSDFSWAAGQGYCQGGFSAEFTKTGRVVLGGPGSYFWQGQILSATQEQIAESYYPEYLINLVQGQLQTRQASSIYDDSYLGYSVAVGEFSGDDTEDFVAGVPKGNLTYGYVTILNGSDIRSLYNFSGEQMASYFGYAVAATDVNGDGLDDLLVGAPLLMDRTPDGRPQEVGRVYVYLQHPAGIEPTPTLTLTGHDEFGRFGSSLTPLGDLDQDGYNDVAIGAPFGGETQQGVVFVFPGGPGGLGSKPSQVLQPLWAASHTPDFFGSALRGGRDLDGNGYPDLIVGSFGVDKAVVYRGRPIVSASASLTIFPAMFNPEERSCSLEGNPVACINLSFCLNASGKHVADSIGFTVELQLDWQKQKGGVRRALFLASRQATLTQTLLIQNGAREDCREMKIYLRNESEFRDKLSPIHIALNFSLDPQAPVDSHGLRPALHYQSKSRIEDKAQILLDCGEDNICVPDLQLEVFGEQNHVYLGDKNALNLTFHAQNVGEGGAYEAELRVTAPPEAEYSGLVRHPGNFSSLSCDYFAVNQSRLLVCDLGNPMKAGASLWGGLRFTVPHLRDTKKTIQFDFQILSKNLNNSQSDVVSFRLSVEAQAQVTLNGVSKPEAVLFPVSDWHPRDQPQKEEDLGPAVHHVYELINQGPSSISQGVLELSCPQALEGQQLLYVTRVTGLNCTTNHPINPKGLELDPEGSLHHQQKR
Sequence of integrin α5β1 (P08648 895-1049 partner limits assumed): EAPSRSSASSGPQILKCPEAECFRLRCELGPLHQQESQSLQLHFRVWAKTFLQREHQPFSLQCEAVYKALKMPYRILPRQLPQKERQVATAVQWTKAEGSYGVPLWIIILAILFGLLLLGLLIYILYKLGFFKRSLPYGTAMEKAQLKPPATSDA
Sequence of integrin α5β1 (P05556 21-798): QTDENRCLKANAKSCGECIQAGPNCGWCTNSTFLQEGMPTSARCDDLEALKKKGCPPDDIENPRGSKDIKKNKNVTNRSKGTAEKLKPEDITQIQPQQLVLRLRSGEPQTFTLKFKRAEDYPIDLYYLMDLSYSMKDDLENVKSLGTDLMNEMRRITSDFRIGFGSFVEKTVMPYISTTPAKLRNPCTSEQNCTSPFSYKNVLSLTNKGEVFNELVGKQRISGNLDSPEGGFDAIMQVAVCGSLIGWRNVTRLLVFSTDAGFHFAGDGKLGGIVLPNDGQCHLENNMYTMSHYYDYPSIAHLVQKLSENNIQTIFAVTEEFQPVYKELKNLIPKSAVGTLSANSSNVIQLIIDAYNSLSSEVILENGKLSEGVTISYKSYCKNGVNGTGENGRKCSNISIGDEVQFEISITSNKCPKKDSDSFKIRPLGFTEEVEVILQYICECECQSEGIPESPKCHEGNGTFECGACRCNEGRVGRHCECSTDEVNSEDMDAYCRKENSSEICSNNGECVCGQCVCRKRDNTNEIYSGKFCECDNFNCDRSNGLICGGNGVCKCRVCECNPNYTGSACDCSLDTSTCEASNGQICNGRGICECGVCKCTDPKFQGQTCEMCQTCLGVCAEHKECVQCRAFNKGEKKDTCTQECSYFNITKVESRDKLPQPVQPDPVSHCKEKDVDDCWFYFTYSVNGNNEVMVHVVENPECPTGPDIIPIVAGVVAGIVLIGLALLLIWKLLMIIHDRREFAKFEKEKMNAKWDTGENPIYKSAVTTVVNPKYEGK

CS-1 melanoma tumors = experiment: CS-1 melanoma tumor growth on chick embryo CAM, intravenous mAbs; assay type: in vivo; conditions: 100 to 300 μg mAb once intravenously; 7 days
Description: Angiogenesis is induced in the CAM assay system by direct apposition of a tumor fragment on the CAM. Preparation of the chick embryo CAM is identical to the procedure described above. Instead of a filter paper disk, a 50 milligram (mg) to 55 mg in weight fragment of one αvβ5-negative tumor resulting from growth of cell line suspensions described below, is placed on the CAM in an area originally devoid of blood vessels.
In one embodiment, hamster melanoma cells, CS-1, obtained from Dr. Caroline Damsky from University of California at San Francisco, were used in the CAM assay as described above for formation of melanoma tumors. Following the transfer of approximately a 50 mg CS-1 tumor fragment on a new 10 day chick embryo CAM, separate preparations received an intravenous injections of either 100 μg or 300 μg of P1F6 antibody, LM609 antibody or control CSAT (anti-β1) antibody. An additional control included a preparation that received no treatment. The results are discussed below in Example 6D.
Tumor-induced blood vessels prepared above were also treated with mAbs applied by intravenous injection. […] After this time period, the tumors were resected and analyzed by their weight to determine the effect of antibody exposure on tumor growth or suppression.

[1] = tested on: angiogenesis induced by TGF-α; experiment: chick CAM assay, TGF-α-induced angiogenesis; assay type: in vivo; conditions: TGF-α 1.0 μg/ml; antibodies 75 μg per embryo, calphostin C 100 nM
Description: The above growth factors (cytokines), including bFGF and VEGF, were separately applied at a concentration of 1.0 μg/ml to the 10 day old CAM model as previously described. PMA was used at a concentration of 20 ng/ml.
After 24 hours after growth factor treatment, the antibodies, LM609 and P1F6, or the protein kinase C (PKC) inhibitor, calphostin C, were separately provided to the CAM model, either by a single intravascular dose as described above or by topical administration as described below in the next example. For intravascular injections over the next 3 day consecutive period, the antibodies were used at a concentration of 75 μg per embryo and the calphostin C was at a dosage of 100 nM.
On day 13, filter discs and associated CAM tissue were dissected and analyzed for angiogenesis with a stereo microscope. Angiogenesis was scored in a double blind manner by analyzing the number and extent of branching of the blood vessels within the area of the discs. The scores ranged from low (1) to high (4). The angiogenesis index was determined by subtracting a background score of 1 from all data. Experiments were repeated 2–4 times with 5–6 embryos per condition.

| Molecule | inhibition of binding of fibrinogen to integrin α5β1 (integrin α5β1) | inhibition of CS-1 tumor growth (CS-1 melanoma tumors) | effect on CAM angiogenesis induced by TGF-α (angiogenesis index) [1] |
| --- | --- | --- | --- |
| cyclo(Arg-Ala-Asp-D-Phe-Val) (cyclo(RAD[dF]V); SMILES CC(C)[C@@H]1NC(=O)[C@@H](Cc2ccccc2)NC(=O)[C@H](CC(=O)O)NC(=O)[C@H](C)NC(=O)[C@H](CCCNC(=N)N)NC1=O) [peptide 69601, reference compound] | not inhibit binding | – | – |
| B1 | – | also inhibited tumor growth, however, less effective than that with P1F6 | failed to do so |
